According to patent US9074002B2, “PTP1B inhibitors” (Cold Spring Harbor Laboratory, priority 2009, dated 2015):

T1: PTP1B (reduced, active) (Homo sapiens, UniProt P18031)
T1 construct: made in house; host or cells: E. coli BL21 (pET19b)
T1 sequence (P18031 3-277 limits assumed): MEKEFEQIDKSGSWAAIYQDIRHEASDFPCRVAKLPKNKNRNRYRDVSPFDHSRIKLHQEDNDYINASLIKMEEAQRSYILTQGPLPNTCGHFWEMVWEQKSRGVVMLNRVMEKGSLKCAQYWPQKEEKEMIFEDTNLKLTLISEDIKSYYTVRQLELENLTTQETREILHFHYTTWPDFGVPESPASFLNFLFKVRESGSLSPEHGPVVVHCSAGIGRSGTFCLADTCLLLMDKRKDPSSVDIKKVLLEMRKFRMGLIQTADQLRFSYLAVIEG

T2: PTP1B-OX (Homo sapiens, UniProt P18031)
T2 construct: made in house; host or cells: E. coli BL21 (pET19b)
T2 sequence (P18031 3-277): T1 sequence (P18031 3-277 limits assumed)

B1: scFv45: conformation-sensor scFv binding PTP1B-OX, SEQ ID NO: 26 and 78; expressed as intrabody (protein)
scFv: MKKTAIAIAVALAGFATVAQAALTQPSSVSANPGGTVKITCSGSSSAYGYGWYQQKSPGSAPVTVIYNNNKRPSNIPSRFSGSKSGSTGTLTITGVQAEDEAVYFCGSEDSSTDAIFGAGTTLTVLGQSSRSSTVTLDESGGGLQAPGGALSLVCKASGFTFSSYDMGWIRQAPGKGLEYVAGITDNGRYASYGSAVDGRATISRDNGQSSVRLQLNNLRAEDTGTYYCARDDGSGWTGNSIDAWGHGTEVIVSSTSGQAGQHHHHHHGAYPYDVPDYAS
B2: scFv57: scFv binding PTP1B-OX, SEQ ID NO: 27 and 90 (protein)
scFv: MKKTAIAIAVALAGFATVAQAALTQPSSVSANPGAFNKITCSGSSSAYGYGWNQQKSPGSAPVTVIYNNNKRPSNIPSRFSGSKSGSTGTLTITGDQDEDEDFYFCGSEYSSTDAIFGAGTTLTVLGQSSRSSTVTLDESGGGLQAPGGALSLVCKASGFTFSSYDMGWIPQAPGKGLEYVAGITDNGIYASYGSAVDGRATISRDNRQSSVKLQLNNLKADDTGTYYCARDDGSGWTGNSIDAWGHGTEVIVSSTSGQAGQHHHHHHGAYPYDVPDYAS

Key:
PTP1B (reduced, active) = target: T1, PTP1B (reduced, active); test: Direct effect of scFvs/antibodies on PTP1B phosphatase activity (32P-pTyr-RCML substrate); format: biochemical; settings: 32P-labeled pTyr-RCML substrate, FIG. 1
Description: (§1) Applicant's hypothesis was that scFvs that are able to bind to and stabilize the oxidized conformation of PTP1B in solution would inhibit reactivation by reducing agent, but have no direct inhibitory effect on phosphatase activity in assays in vitro. Activity was measured using ^32P-labeled pTyr-Reduced Carboxamidomethylated and Maleylated Lysozyme as substrate. Applicant established conditions in which wild type PTP1B could be reversibly oxidized in vitro. PTP1B was inactivated following addition of H2O2. […] Applicant validated this approach further, by testing the effects of expressing one of the scFvs (scFv45) as a single chain antibody fragment “intrabody” to PTP1B, using 293T cells as the expression system. This intrabody was expressed transiently and then tested for effects on insulin signaling, focusing initially on the tyrosine phosphorylation status of the beta-subunit of the insulin receptor and insulin receptor substrate (IRS-1).
(§2) Reduced carboxamidomethylated and maleylated lysozyme (RCML) was labeled with ^32P using recombinant GST-FER kinase to stoichiometries up to 0.8 (mol ^32P incorporated/mol of protein). This ^32P-Labeled phospho-tyrosyl RCML was used as the substrate in the in-solution phosphatase assay for screening the conformation sensor scFvs. Recombinant PTP1B was reversibly oxidized and transiently inactivated with H2O2 (5× molar excess of the protein). […] Purified bacterially expressed scFvs (100× molar excess of PTP1B) were incubated with PTP after H2O2 treatment and its removal and the effect of individual scFv on stabilizing the reversibly oxidized conformation was assessed by the phosphatase assay under reducing condition.
In order to screen the isolated scFvs for those that inhibit reactivation of PTP1B-OX by reducing agent, but have no direct inhibitory effect on phosphatase activity in assays in vitro, the effect of six scFvs (scFv20, scFv34, scFv45, scFv57, scFv64 and scFv106) on PTP1B activity was determined. PTP1B activity was measured using 32P-labeled pTyr-Reduced Carboxamidomethylated and Maleylated Lysozyme as substrate (FIGS. 1 and 2). Addition of the reducing agent TCEP alone had no substantial effect in PTP1B activity was assessed.

PTP1B-OX [1] = target: T2, PTP1B-OX; test: Inhibition of reactivation of reversibly oxidized PTP1B by reducing agent (RCML phosphatase assay); format: biochemical; settings: PTP1B oxidized with H2O2, buffer exchange, TCEP added; FIG. 2
Description: as §1, §2
In a different experiment, conditions were established in which wild type PTP1B could be reversibly oxidized in vitro. […] Addition of the reducing agent alone had no substantial effect on PTP1B activity (FIGS. 1 and 2, “PTP1B”).

PTP1B-OX [2] = target: T2, PTP1B-OX; test: In vitro binding assay, purified recombinant PTP1B (37 kDa) and purified scFv, Ni-NTA pull down; settings: purified proteins, scFv in molar excess, 2 hours at 4° C.; FIG. 9
Description: They established conditions in which PTP1B is reversibly oxidized by H2O2 in solution (FIG. 8). An artificial protein substrate RCML, in which tyrosine was phosphorylated with ^32P using recombinant GST-FER kinase was used in this assay to measure the phosphatase activity. Recombinant PTP (37 kDa) was incubated with increasing concentration (50 μM to 100 mM) of H2O2. A quick buffer exchange was done to remove the H2O2 and reducing agent (TCEP) was added to reactivate the enzyme.
In the in vitro binding assay, purified PTP was reversibly oxidized with […] followed by a quick buffer exchange to remove H2O2 (FIG. 8). Purified scFv was incubated in molar excess with PTP1B-OX or with PTP under reducing condition (with 2 mM TCEP) in binding buffer (20 mM HEPES, pH 7.4, 300 mM NaCl, 0.05% BSA, 0.05% Tween-20 and 10 mM imidazole) for 2 hours at 4° C. Ni-NTA agarose was added and incubated for one hour at 4° C. Protein complex bound to Ni-NTA agarose beads was pulled down and washed (three times, 5 minutes each, at 4° C.) with binding buffer containing 20 mM imidazole to reduce non-specific binding to the beads. The protein complex was eluted from the Ni-NTA agarose beads with 500 mM imidazole (in binding buffer, pH 7.4) for 15 minutes at 4° C. with gentle shaking. The complex was separated by SDS-PAGE and PTP1B was detected with anti-PTP1B antibody (FG6) and scFv was detected with anti-HA antibody [anti-HA (3F10)-HRP, Roche] by immunoblotting. Eight different scFvs (scFvs 20, 21, 24, 28, 45, 48, 57, and 105), expressed and purified from bacterial cultures were tested by this in vitro binding experiment.

Molecule | direct effect on PTP1B activity (PTP1B (reduced, active)) | inhibition of reactivation of PTP1B-OX by reducing agent (restoration of PTP1B activity after reversible oxidation) (PTP1B-OX [1]) | binding to PTP1B-OX in vitro (PTP1B-OX [2])
B1 | no direct inhibition of PTP activity | substantial inhibition of the restoration of PTP1B activity | specific binding to PTP1B-OX
B2 | no direct inhibition of PTP activity | substantial inhibition of the restoration of PTP1B activity | specific binding to PTP1B-OX
